This assay deals with full domain protein A ligand (immobilised on resin) (UniProt P38507). Nature of the assay: protein A affinity chromatography, pH gradient elution, POROS MabCapture A Select (Example 5-4).

With “GLP-1-Fc (from UniProt P01275 98-128) (Fc fusion)”, the Peak 1 End pH (elution) was found to be 3.95 pH and the Peak 1 start pH (elution) worked out at 4.17 pH.
